Data as given in US5919901.
Ends that are not written are not given here.

Target: T1, Rat Y4/PP1 (clone) (rat), Q63447
T1 chain: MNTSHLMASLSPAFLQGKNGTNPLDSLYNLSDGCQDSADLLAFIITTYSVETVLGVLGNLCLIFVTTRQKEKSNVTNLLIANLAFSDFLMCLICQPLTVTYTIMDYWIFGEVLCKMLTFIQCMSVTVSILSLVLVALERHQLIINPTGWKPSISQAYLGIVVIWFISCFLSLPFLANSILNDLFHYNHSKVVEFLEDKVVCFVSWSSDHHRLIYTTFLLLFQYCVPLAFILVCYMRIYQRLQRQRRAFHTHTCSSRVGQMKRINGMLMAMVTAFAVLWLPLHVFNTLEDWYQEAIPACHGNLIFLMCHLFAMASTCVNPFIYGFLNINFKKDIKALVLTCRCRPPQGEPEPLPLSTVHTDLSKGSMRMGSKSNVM
Test: competition with rat [125I]PP on the rat Y4/PP1 clone
Conditions: remark: other sources report otherwise

IC50: > 1 µM
B1: p(13-36)NPY, P01304 (peptide)
peptide: PAEDLARYYSALRHYINLITRQRY
modifications: ends and bridges not checked
